Data as given in the DeepSol protein solubility set.

Test: soluble on expression in E. coli; label from the status in PepcDB or PDB records

Row | Sequence | soluble on expression in E. coli
1 | MAHHHHHHMSLVKMKERDEKAREEAEKLLNEVIEQSQGKMYKPTAAAGVGVNTQPHNRRMRVETLRSTPDYIFKIILVGDSYVGKTRFLKNLVGAIGFGDQCVTTLSVDVVNHYVIVDGKTVQVLMYDTCGQERFRAMTAQFYRDAHGAIMVYDTTQIGSFDNIEVWFSQLNSFGCENTSKILVGNKCDLPERRAVEIGRARALADKLGVPFIETSAMTGAGVAVAVEALVRMIMRQQPVPLASQWAGSKSGHRNAVNLERPRRENGTGRRSERSQRNDNCCCQ | soluble
2 | MDVEPIFCAEQIVIPHNLADILKAYTKEVIRRQPTDLIAFSAKYFTNLANVASGVSNSSAPAKEQLRQVYTRGGSGGATLTESQVTGLCQQAGIADAVVAKVMEVGAFTPAAVDLSKFVFLCLAMSCEDFNRVCMGVFDVFSDNGSLPAQDLLTLIAHLGPDMDPEVTPAFLDAVAAELPAGGGAVTYMELCEAPSLKPKLGLS | not soluble
3 | MSLILVKDAIITGKKQDLLVEGNIIKKIGNISISEVSKDETEIIDGKNCVLIPGLINTHTHVPMSLFRGVADDIPLMEWLSGHIWPMESKLNEKIVYAGTLLGTIEMIKSGTTAFNDMYFFLDSIIKAVDETGIRSTIAYGMIDLFDEEKREKELKTAKESLEMIKNLNNSRITGALGPHAPYTCSKEILESTNALAREYNVPIHIHMNETLDEINQVVEKTGMRPFEYLNSFGFFDNVNTICAHCVHLSASEIQIMKEKNIFAAHNPVSNLKLASGVSPVLKLLENNIPVTLGTDGCGSNNNMNLFEEIKAAALIHKGVNLNPVAVIAKDAFDFGTKNGAKALNINSGEIKEGKLADFVLINMKKPYLTPKENIESHLVYSFNGVVDKVVIDGKLVLNDGKMVNIDEEKVYEIAEEAYFELANEGHHHHHH | not soluble
4 | MIVTVTMNPSIDISYLLDHLKLDTVNRTSQVTKTPGGKGLNVTRVIHDLGGDVIATGVLGGFHGAFIANELKKANIPQAFTSIKEETRDSIAILHEGNQTEILEAGPTVSPEEISNFLENFDQLIKQAEIVTISGSLAKGLPSDFYQELVQKAHAQEVKVLLDTSGDSLRQVLQGPWKPYLIKPNLEELEGLLGQDFSENPLAAVQTALTKPMFAGIEWIVISLGKDGAIAKHHDQFYRVKIPTIQAKNPVGSGDATIAGLAYGLAKDAPAAELLKWGMAAGMANAQERMTGHVDVENVKKHLMNIQVVEIAK | not soluble
5 | MSRIEFIRKEEKKYHDFCYENYKLFEEGSWLYKPVKTVIELLPILDERTSPKVLDLGSGVGRNSIPIAKEIKNKNGKVICVDLLDSALDKLKLYSKEYEVEEVIETMKADIGHYDIAKNEYDLIVAVSTLEHVESENVFEKVIKKMASGTKNEGINCIIVNSEVEEIDISTNEKLDAMMEVNMKTKDMLSKLRQSYNGWEIVNQLVKPLEYKIVRDERDVLLKTNAITFAVKKKLEHHHHHH | not soluble
6 | MGTLLIDVDGTVVDSYPGIREAFIHSMTSVGIPVPEESWLRRIPGPPMVETMRALGQSDSVTAAALACFRQQYDQISWRNSQLFDGWHDALSEWRSQGIRLFTATSKNEHLARLTLEYLGVADLFDFIGGADPTVGRETKADVIAYVLATTETSEHSPILMVGDRSHDTEGAAAFGIPTMLVTWGYGNEQEWSHADYHARNMAEAKGIVRDFFN | not soluble
7 | MGSDKIHHHHHHLKILKFQIKDFRNLKKIEYQPSPGLNIFYGENAQGKTNILEALYYLATGNSFRSNKEKTLISYESSSLQVQARYNHQERIIDSSITYGLDGKVFRINKKRASYNHTDRLRIILFSPDDLYLVKGAPYKRRFFLDFLLGQISNEYLFKLDNYRKILKKRNLLLKKEETNSRSFAIINDIFMDLAAQLLISRLNLINVLDEAIQEIYPQINNDGGQLKIRYALSFPVDSGKINLDILKDSLKKQVESETEKEKKRKTTLLGPHLDDMHIYLNEQMARLFASQGQQRNIVICLKLAEIMTFRKIKGFFPIFLLDEVLAELDDSRSNKLLKYLAQSPFQSFLTSVKLEKFEVMDASIFLVKDGCLLGKE | not soluble
8 | AHHHHHHGSIILDNHFHVDPNHGLFLEAVKQFQRAGGTHLIVVYKTAHDYGFPGLKAEDFMKAMDFHIELVEKINRETQVKAYAVVGVHPAEFDYLARNKGLEFARNEVMKALEYAQKLCLEGKAVGIGEVGRPHYEVPQQIWEVSIEIMKYAMELAKDADCAVQLHTESFNEEKFRELGEYIREVGIKPYKVVKHFSPPLVNVAKEVGVFPSIIASKKNIEEAIKQGNRFLMETDYIDDKRRPGAVLGPKTVPKRTKEFLQRGIFTEEDVYKIHVENPKKVYGIEI | not soluble
9 | GIKDSPVNKVEPNDTLEKVFVSVTKYPDEKRLKGLSKQLDWSVRKIQCWFRHRRNQDKP | soluble
10 | MSTNALQPKTIGGNNNILEVIRLKRADLRKSDRKVAELVLADPKRVINATIAEAAEWAEVSQPTVIRFCASIGCQGYQDFKLRLAQSLALGMSATHSVIDADDTPAKVSEKIFDYTITSLDWVRNHLDPVQVDRAVDALAKANRIEFFGFGASGIVARDAQQKFPLFGVPCGAETDAHQQIMVVSMLKPGDVAVVISNTGATLAIIETARRARESGCQVIGIVGSDGPLVEFCDIVLMVETLENTNIYTPTISRIAALTVVDILSTSVALRRGAEHVDLFTGMKRNLRYLRTSTET | not soluble
11 | MGSDKIHHHHHHMTEITTLSQFLTTAKTQFQVYELGRRVQHIDMLAFHQIESLVTPYPYPIQGHAQFAVVFWNESQQHFIWFLKLPLDEQGLLSPAPRSQFIEMVLTALGQDPTQPLTDEQQDRLANNPFSFKPSQEKLSVFNALVRKQLGLSASIQYEFAMQYLSGQIAPSEWQHIGMQGLSDVCVRLGELDHEQHILASFDQAAIEVQIALCQCLEHLQLTEAIAMKIFSKFITAPNEYQAYYLRALASQTELSQQALLHLQQTDRLDANALISIAGRNWPILKQALSRSIYLEALALQPQAFFNQIFADIVAIPNLRNHLLGELRNPNRSVQLSQAIGGLFKAASK | not soluble
12 | AIAADGQMPFSCHYPSRLRRDPFRDSPLSSRLLDDGFGMDPFPDDLTASWPDWALPRLSSAWPGTLRSGMVPRGPTATARFGVPAEGRTPPPFPGEPWKVCVNVHSFKPEELMVKTKDGYVEVSGKHEEKQQEGGIVSKNFTKKIQLPAEVDPVTVFASLSPEGLLIIEAPQVPPYSTFGESSFNNELPQDSQEVTCT | soluble
13 | MKKDVTQKQTIIKFENGHLYTASDSCITEMPLTIKVNEFKFATIICSRNYLEELTLGFLASEGIFLKRNDLQSIHIDESKGFAHVKLTQSVGHHFEHPTKRVLASCCGKSRAFYFQNDAAIAKTSMTTILEHHHHHH | not soluble
14 | NLQPLETTITDVERFKDTVTLELSCPSCDKRFPFGGIVSSNYYRVSYNGLQCKHCEQLFTPLQLTSQIEHSIRAHISLYYAGWLQCDDSTCGIVTRQVSVFGKRCLNDGCTGVMRYKYSDKQLYNQLLYFDSLFDCEKNKKQELKPIYLPDDLDYPKEQLTESSIKALTEQNRELMETGRSVVQKYLNDCGRRYVDMTSIFDFMLN | soluble
15 | MKKIAVFADVQNLYYTVRQAYGCHFNYAALWADISKRGEIVHAFAYAIDRGDSKQQQFQQILRNLGFTVRLKPYIQRSDGSAKGEWDVGITIDIMDFAPQVDEVVLASGDGDFDMLLDRVISKHGVEAVAYGVPGLTANSLIRAASRYVPIEGALLLK | not soluble
16 | MFKRLSRFLLPLVWIFTATTALADDTQINTMDPYSMVKSVANKTFDRFHKDKALIDADADHLKVIVREELMPYIDYKYASYKVLGQYLKESTEDQRNRFVDAFQGYLVTTYAQAFTEYTNQKVEFSPGSDFSNEKIVDVNVQIIEAGRPPIKLLFKARRLKDDSWKAFDLVAEGVSLLSSKQSEISNLIRQQGIEPVIKMLEERTKDKVTKQPKAGKLEHHHHHH | soluble
17 | MAEKKKDEKETKETENFILKLSAETVLFSNAKLGDEVTTTVLKMTNPTTDKCAFKVKCTSNDLFKIKTPVGYIKPDETIDIPLCHNPGKAIPENNKQYFAFYYIKTKEDGPARDAWKNHKPDGMKRIYISFKKGDEKGDEKKDEKKEEKKEEKKEEKKEDKKDDKKEAKKEEKKEEKKEEKKEEKKEEKKEEKKEEKNDENKEEKKEEKKDEKKEEKKVEEAKK | soluble
18 | MGSDKIHHHHHHMRALATWQDKCIDSQLLVASLVGLFKQRDLDCDKLLRGTGIFITDIRKPDHLISPKQLARLLDNALAQWPNGDLSFLLGQLWFPSQSGVLTSGMFCARDVKELIYFWHKYHWLTQPWLQTWRWQGEHEWHFLLSLDLGMHRHKQFFIELSLSSFMACFKQLLGQAWRGSICFPYPAPDNLAHYYKYFGMDLRFDAPLCRISMAKNLLRQPSLFANQSLLYSQPENVDTHCAEDAQLPSASQSCIHGEAASPALDIQPLQLPLRPQLNMAKAARQALFAQEFRLGLAAGIRLKLMRRTLSLPEMAQILEISPATLKRRLGEMGLNYGQLADESRLIRALYFLAEPEQDAHSIASSLSFSDASNFRRSFKRWTGQLPGYFRYWLA | not soluble
19 | GSKVEDPKDFPSELLSFLSHAVFSNRTLACFAIYTTKEKAALLYKKIMEKYSVTFISRHNSYNHNILFFLTPHRHRVSAINNYAQKLCTFSFLICKGVNKEYLMYSALTRDPFSVIEESLPGGLKEHDFNPESS | soluble
20 | MGSDKIHHHHHHMSTFLESLRDILSAGESIAMATIANHSGSTPRGDGAQMVIRPDGSILGTIGGGLVEARCIEAGRDLLQRPPGSALFCAFALDNTTAAEAAMVCGGHLTVIIEHAGACHDNVNGCHTGEQTGCSAGHGKGLADILLHACDRVADGLSASFGVEYVWDSPSGQDGANALDKADISGRATTRQTFRPMRAAVHTTGEDSDGQRLSGASTGLALSESGCRLDVMLVPPPRLVIFGAGHVAVPTAHFGHAVGFSVTVIDDRPDFATPERFPDAHLRIPPSFAEAFDGLHVTPDTYLVIMTRGHLHDGEILEQALKTPARYIGMIGSRRKRDALYAELQEQGLDDATLARCHCPIGLDIQAQTPEEIGISIMAELVMHRASA | not soluble
21 | MSLNRDKPLKVMLVAAEASGDALGAGLAKALRARLGQGVTFVGIGGAKMAEQGVQSPFDIAQLSILGILESLKAYPRAMARLKDTVALAAREKPDVAVLIDSWGFNIRLAHALRRLDPTLPLVKYVAPQVWAYREGRAQALAKAVDLLLSIQPMDKAYFDAAGLQNVFVGNSALAKRFDHADPGRLRAAIGAAASQQILLVLPGSRPSEIERVMPAFEDAVRRLKVERPDLHIVVPAAYTVAEAVKARVAGWPFRAHVIEDEGLKDDAFLAGDVALACSGTVTTELALAGRPMVVGYKTGAVTYAIVKRLMKPRWITLFNIAAGKAVAPELIQHACEGEGLAREVALRLDDPDLRQRQTAEQYAALDRMGRGMPDPSEAAAEALLDFLSARGALGREGHHHHHH | not soluble
22 | MSLSKNVTYEGIYVENINVSNLNEKDLKEKLNEHYSDLLNNFKITFNYKDNFNETFSAKDLGFFFDINDLSNQVFSFGKNSNIFSNTIERLKLKSNPKYFQFKPESNSEVLSEKLSEISNKINKEKVEPTISFSNDSISATKEQIGYKLDLEKLTSEIVNDLNNSHDSLNCTINIPVEEIKPKLTQETVNNMVILGSYTTKLPSLTGGRTKNISNYLSKLNGTILMPGDIFSADKEGEDRTESNGYTYAPGYIGNKVVDILAGGICQGVTTLYNSVLYADLKIVERAPHSLPVTYAPIGRDATMASGVIDFKFQNNMNNPVIVQTYITSSGQVKSNIWGIKEDPGKEIVISVDQHGPKSSTTYKETYENGVLVKKEVLSKDKYNEGHHHHHH | soluble
23 | YCICNQVSYGEMVGCDNQDCPIEWFHYGCVGLTEAPKGKWYCPQCTAAMKRRGSRHK | soluble
